Sequences and labels used below:
T1: MMP-26 catalytic domain, tagged with hexa-histidine (human, UniProt Q9NRE1 90-261)
T1 construct: the forward primer adds Met-Ala before it; also called MMP-26 target protein; Matrilysin-2; not shown: Also any N-terminal residues added by the forward primer (Met-Ala according to our card; the primers were not visible to me)
T1 sequence: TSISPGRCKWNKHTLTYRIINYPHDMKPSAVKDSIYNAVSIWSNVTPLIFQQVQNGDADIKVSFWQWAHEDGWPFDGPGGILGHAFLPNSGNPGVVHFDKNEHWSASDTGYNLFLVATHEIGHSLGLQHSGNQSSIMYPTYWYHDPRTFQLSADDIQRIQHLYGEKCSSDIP

B1: H6-orig (antibody, human IgG4, V domains shown)
VH: EVQLLESGGGLVQPGGSLRLSCAASGFTFSQYWMNWVRQAPGKGLEWVSGIGPSGGITYYADSVKGRFTISRDNSKNTLYLQMNSLRAEDTAVYYCARGEEDGYNSDYWGQGTLVTVSS
VL: QSELTQPPSASGSPGQSVTISCTGTSSDVGAYNYVSWYQQHPGKAPKLIIYEVNKRPSGVPDRFSASKSGNTASLTVSGLQAEDEADYYCNSYAGSNSLIFGGGTKLTVLG
notes: whole human IgG4
B2: A10 (antibody, human IgG4, V domains shown)
VH: EVQLLESGGGLVQPGGSLRLSCAASGFTFSAYRMFWVRQAPGKGLEWVSSIWPSGGTTSYADSVKGRFTISRDNSKNTLYLQMNSLRAEDTAVYYCARDRGYDSSGYFDYWGQGTLVTVSS
VL: QSELTQPPSASGTPGQRVTISCSGGSSNIGSNYVSWYQQLPGTAPKLLIYNNNQRPSGVPDRFSGSKSGTSASLAISGLRSEDEADYYCAAWDDSLSSAVFGGGTQLTVLG
notes: whole human IgG4
B3: B04 (antibody, human IgG4, V domains shown)
VH: EVQLLESGGGLVQPGGSLRLSCAASGFTFSFYWMMWVRQAPGKGLEWVSGISSSGGFTKYADSVKGRFTISRDNSKNTLYLQMNSLRAEDTAVYYCARETSRRAFDIWGQGTMVTVSS
VL: DIQMTQSPSSVSASVGDRVTITCRASQGISKSLAWYQQKPGKAPKLLVYGAFSLESGVPSRFSGTGAGTDFILTISRLQPEDFATYYCQQANSFPLTFGGGTKVEIKR
notes: whole human IgG4
B4: B06 (antibody, human IgG4, V domains shown)
VH: EVQLLESGGGLVQPGGSLRLSCAASGFTFSQYFMKWVRQAPGKGLEWVSSISPSGGLTQYADSVKGRFTISRDNSKNTLYLQMNSLRAEDTAVYYCARGGIEAPGSPSDYWGQGTLVTVSS
VL: DIQMTQSPSFLSASVGDRVTITCRASQGISSYLAWYQQKPGKAPKLLIYAASTLQSGVPSRFSGSGSGTDFTLTISSLEPEDFATYYCQESYSTPFFTFGPGTKVDIRR
notes: whole human IgG4
B5: D6-orig (antibody, human IgG4, V domains shown)
VH: EVQLLESGGGLVQPGGSLRLSCAASGFTFSMYSMRWVRQAPGKGLEWVSSIYPSGGSTEYADSVKGRFTISRDNSKNTLYLQMNSLRAEDTAVYYCAREGGENDYWGQGTLVTVSS
VL: DIQMTQSPLSLSASVGDRVAITCRASQSIDTYLNWYQQKPGKAPKLLIYAASKLEDGVPSRFSGSGTGTDFTLTIRSLQPEDFASYFCQQSYSSPGITFGPGTKVEIKR
notes: whole human IgG4
B6: B02 (antibody, human IgG4, V domains shown)
VH: EVQLLESGGGLVQPGGSLRLSCAASGFTFSDYFMKWVRQAPGKGLEWVSSIYPSGGPTKYADSVKGRFTISRDNSKNTLYLQMNSLRAEDTAVYYCARERSSGWYGYYYYGMDVWGQGTTVTVSS
VL: B5 VL with L9S
notes: whole human IgG4
B7: A12 (antibody, human IgG4, V domains shown)
VH: EVQLLESGGGLVQPGGSLRLSCAASGFTFSAYWMDWVRQAPGKGLEWVSVIYPSGGSTNYADSVKGRFTISRDNSKNTLYLQMNSLRAEDTAVYYCAREGIAAAAPMDVWGKGTTVTVSS
VL: DIQMTQSPGTLSLSPGERATLSCRASQSVSRSYLGWYQQKPGQAPRLLIYGASNRATGIPDRFSGSGSGTDFTLTISRLEPEDFAVYYCQQYGISPLTFGPGTKVDIKR
notes: whole human IgG4
B8: A1-orig (antibody, human IgG4, V domains shown)
VH: EVQLLESGGGLVQPGGSLRLSCAASGFTFSYYRMSWVRQAPGKGLEWVSSIGPSGGDTLYADSVKGRFTISRDNSKNTLYLQMNSLRAEDTAVYYCARSFSSGPYYFDYWGQGTLVTVSS
VL: QSVLTQPPSASGTPGQRVIISCSGSSSNIGSHYVHWYQQVPGTAPKLLIYRNGQRPSGVPDRFSGFKSGTSASLAISGLRSEDEANYYCATWDDSVLFGGGTTLTVLG
notes: whole human IgG4
B9: B07 (antibody, human IgG4, V domains shown)
VH: EVQLLESGGGLVQPGGSLRLSCAASGFTFSQYQMIWVRQAPGKGLEWVSVIVPSGGITNYADSVKGRFTISRDNSKNTLYLQMNSLRAEDTAVYYCARGGVEAVDSSSPDYWGQGTLVTVSS
VL: DIQMTQSPATLSLSPGERATLSCRASQSVSSYLAWYQQKPGQAPRLLIYDASNRATGIPARFSGSGSGTDFTLTISSLEPEDFAVYYCQQRSNWPRTFGGGTKVEIKR
notes: whole human IgG4
B10: A11 (antibody, human IgG4, V domains shown)
VH: EVQLLESGGGLVQPGGSLRLSCAASGFTFSWYTMMWVRQAPGKGLEWVSRISPSGGHTLYADSVKGRFTISRDNSZNTLYLQMNSLRAEDTAVYYCARDTWDDYYDSSGYYNDFDYWGQGTLVTVSS
VL: QSALTQPPSVSLAPGQTARITCGGNNIGTKSVHWYQQKPGQAPVLVVYDDSDRPSGIPERFSGSNSGNTATLTISRVEAGDEADYYCQVWDSGSDHQVFGGGTKLTVLG
notes: whole human IgG4; the VHC entry has one unread residue (printed z, K75z)
B11: B01 (antibody, human IgG4, V domains shown)
VH: EVQLLESGGGLVQPGGSLRLSCAASGFTFSTYDMLWVRQAPGKGLEWVSSISPSGGSTSYADSVKGRFTISRDNSKNTLYLQLNSLRAEDTAVYYCAREKASDLSGTYSEALDHWGQGTLVTVSS
VL: DIQMTQSPGTLSLSPGERATLSCRASQSVSSSYFAWYQQKPGQAPRLLIYDASSRATGIPDRFSGSGSGTDFTLTISRLEPEDFAVYYCQQYGSSPPMYTFGQGTKLEIKR
notes: whole human IgG4
B12: B10 (antibody, human IgG4, V domains shown)
VH: EVQLLESGGGLVQPGGSLRLSCAASGFTFSSYAMMWVRQAPGKGLEWVSWIVPSGGTTFYADSVKGRFTISRDNSKNTLYLQMNSLRAEDTAVYYCARGLYRWGQGTLVTVSSASTKGPSVFP
VL: DIQMTQSPSSLSASVGDRVTIACRTSQNVNRYLNWYQHKLGQAPKLLIYGATILQSGVPSRFRGSGSGTDFILTITNLQPEDFAVYYCQQTYSPPLTFGQGTKAEFKGTVAAPSV
notes: whole human IgG4
B13: C12 (antibody, V domains shown)
VH: EVQLLESGGGLVQPGGSLRLSCAASGFTFSAYNMMWVRQAPGKGLEWVSRIYPSGGYTLYADSVKGRFTISRDNSKNTLYLQMNSLRAEDTAVYYCARQKLMIRAVRPFDYWGQGTLVTVSS
VL: QSELTQPPSVSVSPAQTASITCSGDKLGDKYACWYQQKPGQSPVLVIYEDTKRPSGIPERFSGSNSGNTATLTISGTQVMDEADYYCQVWDSSTAVFGGGTKLTVLG
notes: whole human IgG4

Where a chain is given by its changes, count along the chain named.

T3 sequence (P14780 107-707 limits assumed): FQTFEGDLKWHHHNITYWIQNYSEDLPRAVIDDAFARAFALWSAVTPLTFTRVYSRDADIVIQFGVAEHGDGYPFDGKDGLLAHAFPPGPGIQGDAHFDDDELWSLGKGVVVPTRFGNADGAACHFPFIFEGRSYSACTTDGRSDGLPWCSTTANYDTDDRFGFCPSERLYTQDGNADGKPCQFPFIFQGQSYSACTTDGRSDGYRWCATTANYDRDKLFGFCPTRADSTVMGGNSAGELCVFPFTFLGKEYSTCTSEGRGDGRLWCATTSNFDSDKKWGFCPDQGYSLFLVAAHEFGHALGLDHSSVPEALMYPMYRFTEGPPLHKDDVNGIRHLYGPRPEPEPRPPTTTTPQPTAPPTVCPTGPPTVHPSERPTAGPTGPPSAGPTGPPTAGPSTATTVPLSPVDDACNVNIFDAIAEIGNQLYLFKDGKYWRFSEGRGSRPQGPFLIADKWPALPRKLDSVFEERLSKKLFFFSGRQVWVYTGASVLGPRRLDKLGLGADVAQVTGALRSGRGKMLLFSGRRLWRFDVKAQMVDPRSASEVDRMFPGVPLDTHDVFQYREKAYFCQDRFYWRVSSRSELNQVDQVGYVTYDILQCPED

The target of one assay is T2, MMP-3 (UniProt P08254 100-477, limits assumed).
T2 construct: also called stromelysin-1
T2 sequence (P08254 100-477 limits assumed): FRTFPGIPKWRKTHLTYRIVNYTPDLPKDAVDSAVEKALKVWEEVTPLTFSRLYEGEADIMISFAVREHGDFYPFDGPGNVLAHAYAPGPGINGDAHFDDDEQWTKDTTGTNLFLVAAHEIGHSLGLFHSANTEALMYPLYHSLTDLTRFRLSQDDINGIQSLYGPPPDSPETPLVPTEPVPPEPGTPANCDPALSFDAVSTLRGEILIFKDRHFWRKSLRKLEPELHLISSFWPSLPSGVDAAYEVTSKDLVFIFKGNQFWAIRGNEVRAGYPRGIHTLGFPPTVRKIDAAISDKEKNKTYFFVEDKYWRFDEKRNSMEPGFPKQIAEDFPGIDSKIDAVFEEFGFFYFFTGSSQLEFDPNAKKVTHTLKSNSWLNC
Briefly: cross-reactivity ELISA on coated MMP. The procedure: (§1) Twenty-one of the reformatted MMP-26 antibodies were tested for MMP cross reactivity by ELISA analysis. MMP-3, MMP-7, MMP-9, and MMP-12 were coated onto Immulon 2 HB 96-well plates at a concentration of 1 μg/ml for 1 hour at 37° C. The plates were blocked with PBS-T containing 5% (w/v) nonfat dry milk for thirty minutes and subsequently washed with PBS-T. Each antibody was tested for reactivity to all of the above mentioned MMPs at a concentration of 2 μg/ml with an incubation time of 1 hour. Bound antibody was detected with an HRP-conjugated anti-human secondary antibody (Table 3, NT=not tested.).
Background: ELISA stands for enzyme-linked immunosorbent assay.
Turning to B1, the binding result is reported as “no binding (tested: 2 µg/ml)”.
As to B2, the binding result is “no binding (tested: 2 µg/ml)”.
Turning to B3, the binding result was “no binding (tested: 2 µg/ml)”.
Same read-out and setting: next, B4: “no binding (tested: 2 µg/ml)”; B5: “no binding (tested: 2 µg/ml)”; B6: “no binding (tested: 2 µg/ml)”.
In the case of B7, the binding result is listed as “no binding (tested: 2 µg/ml)”.
For the molecule B8, the binding result is recorded as “no binding (tested: 2 µg/ml)”.
Still for that read-out and setting: next, B9: “no binding (tested: 2 µg/ml)”.
On the same count and under the same terms, the entry for B10 is “no binding (tested: 2 µg/ml)”; for B11 it is “no binding (tested: 2 µg/ml)”.

A further assay has as its target T3, MMP-9 (UniProt P14780 107-707, limits assumed).
T3 construct: also called gelatinase
Nature of the assay: cross-reactivity ELISA on coated MMP. The method, then:
as §1
As to B12, the binding result is on record as “no binding (tested: 2 µg/ml)”.
B1: the binding result is listed as “no binding (tested: 2 µg/ml)”.
In the case of B2, the binding result was “no binding (tested: 2 µg/ml)”.
Consider B3, for which the binding result is reported as “no binding (tested: 2 µg/ml)”.
B4: the binding result is on record as “no binding (tested: 2 µg/ml)”.
As for B13, the binding result is on record as “no binding (tested: 2 µg/ml)”.
As to B6, the binding result is given as “no binding (tested: 2 µg/ml)”.
Turning to B7, the binding result is recorded as “no binding (tested: 2 µg/ml)”.
Regarding B9, the binding result is reported as “no binding (tested: 2 µg/ml)”.
Take B10: the binding result is “no binding (tested: 2 µg/ml)”.
For the molecule B11, the binding result is listed as “no binding (tested: 2 µg/ml)”.

For a further assay, the target named is T1, MMP-26 catalytic domain, tagged with …. Nature of the assay: bead-based ELISA, MMP-26 on nickel beads, IgG4 culture supernatant. The method, then:
Reformatted and expressed full-length MMP-26 binding IgG4 antibodies were tested for specificity in a bead-based ELISA. Approximately 1.25 μg of MMP-26 protein was bound to nickel-coated magnetic beads (Novagen) which had been pre-blocked with phosphate buffered saline containing 5% (w/v) nonfat dry milk and 0.05% (v/v) Tween-20. The beads were washed in phosphate buffered saline containing 0.05% (v/v) Tween-20 (PBS-T) and 100 uls of unpurified cell culture supernatant containing transiently produced MMP-26-binding antibodies was added and incubated on a rotator for sixty minutes. The beads were washed with PBS-T and MMP-26-binding antibodies were detected with an HRP-conjugated anti-human secondary antibody. Data is expressed in fold over background where background consists of beads, blocking agent, and culture supernatant containing target antibody (Table 2; in this table, Results shown as fold over background (F>B) where background consists of beads, blocking agent, and culture supernatant).
For B12, the “F > B (fold over background)” value came to 2.7 fold over background.
Consider B2, for which the “F > B (fold over background)” value was 1.84 fold over background.
Consider B4, for which the “F > B (fold over background)” value stood at 2.1 fold over background.
As for B13, the “F > B (fold over background)” value worked out at 1.8 fold over background.
In the case of B7, the “F > B (fold over background)” value was determined as 1.8 fold over background.
On to B10, for which the “F > B (fold over background)” value stood at 1.7 fold over background.
For B11, the “F > B (fold over background)” value came to 2.3 fold over background.

Source of the values: patent US7514534 (DYAX, dated 2009).
